Measurements reported in article PMC10987633, “Structural basis for RAD18 regulation by MAGEA4 and its implications for RING ubiquitin ligase binding by MAGE family proteins” (The EMBO Journal, 2024).
Numbering of substitutions follows the chain as printed.

T1: full-length MAGEA4 M161D (human, UniProt P43358 1-317, M161D)
T1 construct: MAGEA4, human, Uniprot P43358, full length, with M161D; source: E. coli BL21star, purified (TALON, SEC)
T1 sequence (looked up): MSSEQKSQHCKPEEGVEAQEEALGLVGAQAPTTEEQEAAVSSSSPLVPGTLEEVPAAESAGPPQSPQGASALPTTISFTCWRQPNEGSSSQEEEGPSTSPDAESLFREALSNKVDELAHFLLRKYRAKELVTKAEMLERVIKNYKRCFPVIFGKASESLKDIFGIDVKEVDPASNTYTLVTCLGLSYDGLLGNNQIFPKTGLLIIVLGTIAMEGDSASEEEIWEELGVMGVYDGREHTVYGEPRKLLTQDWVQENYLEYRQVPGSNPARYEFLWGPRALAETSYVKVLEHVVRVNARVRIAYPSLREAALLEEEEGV

B1: RAD18 R6BD peptide (residues 340-366) (peptide, UniProt Q9NS91 340-366, looked up)
peptide: SKYRKKHKSEFQLLVDQARKGYKKIAG
notes: also called 27 amino acid peptide corresponding to the RAD18 R6BD; source: synthetic peptide, bought: GenScript
B2: full-length MAGEA4 wild type (purified) (natural protein, human, UniProt P43358 1-317, looked up)
chain: T1 sequence (looked up) with D161M
notes: MAGEA4, human, Uniprot P43358, full length; Cloned into PET15C; No removal of the His tag is described; the diGly search database lists 'His-tagged MAGEA4'; also called MAGEA4 WT; FL MAGEA4; source: E. coli BL21star, purified (TALON, SEC)

What was measured:
Conditions in all cases: both partners purified
[1] = target: B2; assay: ITC; RAD18 R6BD peptide at 200 µM titrated into protein at 20 µM; MicroCal ITC200, 25 °C; SEC buffer (100 mM NaCl, 20 mM HEPES pH 7.5, 1 mM TCEP)
full-length MAGEA4 M161D = target: T1, full-length MAGEA4 M161D; assay: as above
[2] = target: RAD6 wild type (purified alone) (human, UniProt P63146 1-152, paralogue not given; UBE2B chosen because the paper's RAD6/R6BD reference structure 2YBF is UBE2B); assay: as above
[3] = target: RAD18/RAD6 complex (purified) (human, UniProt Q9NS91 1-495; P63146 1-152, 2:1 RAD18:RAD6 asymmetric dimer as stated; Zn2+ bound (RING, zinc finger); RAD6 paralogue not given, UBE2B inferred from 2YBF); assay: mass photometry; OneMP mass photometer, SEC buffer; RAD18/RAD6, and RAD18/RAD6/MAGEA4 first cross-linked with BS3 (30 min on ice) and separated on an S200 3.2/300 column, peak fraction measured
Chain of RAD18/RAD6 complex (purified) (Q9NS91 whole entry, chain 1 of 2): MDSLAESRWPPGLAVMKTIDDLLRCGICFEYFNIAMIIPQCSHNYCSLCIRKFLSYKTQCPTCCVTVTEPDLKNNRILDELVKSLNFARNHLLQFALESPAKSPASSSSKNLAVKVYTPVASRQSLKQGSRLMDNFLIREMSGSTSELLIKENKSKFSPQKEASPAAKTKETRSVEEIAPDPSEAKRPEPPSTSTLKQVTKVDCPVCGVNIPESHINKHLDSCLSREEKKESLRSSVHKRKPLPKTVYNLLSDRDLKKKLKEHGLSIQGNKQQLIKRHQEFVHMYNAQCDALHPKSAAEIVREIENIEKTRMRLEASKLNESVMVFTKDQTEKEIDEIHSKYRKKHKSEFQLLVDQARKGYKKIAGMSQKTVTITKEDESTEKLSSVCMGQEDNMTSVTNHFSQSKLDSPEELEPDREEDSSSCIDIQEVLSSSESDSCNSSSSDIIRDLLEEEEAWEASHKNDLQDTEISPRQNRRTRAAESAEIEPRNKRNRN
Chain of RAD18/RAD6 complex (purified) (B2R503 whole entry, chain 2 of 2, further chain): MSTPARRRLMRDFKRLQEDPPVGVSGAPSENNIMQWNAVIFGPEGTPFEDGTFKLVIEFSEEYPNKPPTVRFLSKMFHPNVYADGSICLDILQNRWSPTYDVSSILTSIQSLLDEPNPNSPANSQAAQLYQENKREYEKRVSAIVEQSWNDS

[4] = target: T2, His-tagged full-length RAD18 wild type (human, UniProt Q9NS91 1-495); assay: cross-linking; XL-MS of RAD18/RAD6 incubated with 5x molar excess of full-length MAGEA4 for 1 h at 4 °C before BS3; trypsin, LC-MS/MS
T2 construct: RAD18, RING E3 ubiquitin ligase, human, Uniprot Q9NS91, residues 1-495, full length; Cloned into PET15C; Dimer in the RAD18/RAD6 complex by AUC and mass photometry; also called RAD18 WT; FL RAD18; source: E. coli BL21star; co-expressed with untagged MAGEA4, in cleared lysate (His pull-down); co-expressed with RAD6 and purified as RAD18/RAD6 (TALON, SEC); not shown: His tag, N-terminal, kept
T2 sequence (Q9NS91 whole entry, the tested form may be a part): as the sequence (Q9NS91 whole entry, chain 1 of 2) above

| Kd [1] [nM] | Kd (full-length MAGEA4 M161D) [nM] | Kd [2] [µM] | stoichiometry N [3] | binding result [4] | Binder |
| --- | --- | --- | --- | --- | --- |
| 405 | 1660 | 25.3 | – | – | B1 |
| – | – | – | 1 MAGEA4 per RAD18/RAD6 complex | binds | B2 |
